According to US20080207521A1, “PEPTIDE LIGAND TO IMPAIR CANCER CELL MIGRATION” (priority 2005, published 2008):

Experiments:
Src kinase = target: T1, Src kinase (Homo sapiens, UniProt P12931); test: Src activity in MDA-MB-468 cells (Western blot); format: cell-based; conditions: PP1 10 μM for last 30 min; with or without serum
T1 construct: Src activity in MDA-MB-468 cells in the absence and presence of PP1 and/or serum; endogenous in cells; host or cells: MDA-MB-468
Protocol: Western blot analysis was performed to evaluate the protein expressions of Wnt-5a, EGF-receptor, Src and Frz-2 and 5 in HB2 and MDA-MB-468 cells. […] The Wnt-5a Ab has been produced in the laboratory, as previously described (9, 10). The cells were lysed and boiled in two times concentrated Laemmli buffer. The protein content was determined in each sample and adjusted to ensure loading of equal amounts of protein in each lane, 50 mM DTT was then added and the lysates were boiled for 10 min, before separation by SDS gel electrophoresis. The proteins were subsequently transferred to PVDF membranes. The membranes were blocked in 3% BSA or 5% non-fat milk for 45 min, incubated with the primary Ab for 1 h (1:2,000 for Wnt-5a, 1:1,000 for activated EGF-receptor, total EGF-receptor, actin, active Src and total Src, and 1:5,000 for Frz-2 and Frz-5), and then for 1 h with a horseradish peroxidase conjugated secondary Ab. The Ab-antigen complex was detected using an enhanced chemiluminescence detection kit from Amersham Pharmacia Biotech (Uppsala, Sweden). In the case of re-probing, the membranes were stripped with a Reblot Strong solution from Chemicon International (Temecula, Calif.).
(A) Effect of pre-treatment (30 min) with the Src-inhibitor PP1 (10 μM) on adhesion induced DDR1 phosphorylation in MDA-MB-468 cells. The blots shown are representative of 3 separate experiments. […]

DDR1 = DDR1 phosphorylation in MDA-MB-468 cells (immunoprecipitation/Western blot); format: cell-based, human
Protocol: The phosphorylation status of DDR1 was analyzed as previously described (12), with the following modifications. After serum-depletion for 16 h, the cells were detached with Versene and then allowed to adhere to collagen I for 60 (MDA-MB-468) or 90 min (HB2) at 37° C. The experiments were terminated by lysing both adherent and non-adherent cells with a lysis buffer (50 mM Tris pH 7.4, 1% Triton-X, 5 mM EDTA, 5 mM EGTA, 50 mM NaCl, 10 μg/ml aprotinin, 2.5 mM benzamidine, 1 mM pefabloc, 1 μg/ml leupeptin and 1 mM Na3VO4). For immunoblotting an anti-DDR1 rabbit polyclonal Ab, sc-532 (Santa Cruz Biotech, Santa Cruz, Calif.) was used at a dilution of 1:10,000. The Ab recognizes DDR1b/c, which is essential because collagen only induces phosphorylation of the b or c isoforms of DDR1 in mammary epithelial cells (10).
Peptide-induced effects on adhesion and DDR1 phosphorylation in MDA-MB-468 breast cancer cells. (A) Western blot analysis of Wnt-5a protein expression in Wnt-5a antisense and Wnt-5a over-expressing HB2 cells in comparison to MDA-MB-468 tumour cells. […] The amounts of adhesive cells were analyzed as described in the methods and the results are given as means±SEM of 8 separate experiments. […] The amount of adherent cells was estimated as in panel A and expressed as means±SEM of 6 separate experiments, ns=not significant, ** p<0.01 and *** p<0.001. […]

Frz-5 receptor [1] = target: T2, Frz-5 receptor (Homo sapiens, UniProt Q13467); test: cell-based or functional assay
[2] = system: Wnt-5a antisense HB2 cells; test: Migration of Wnt-5a antisense HB2 cells in modified Boyden chamber; format: cell-based, human; conditions: recombinant Wnt-5a 0.4 μg/ml; 18 h
Protocol: Cell migration analyses were performed in a modified Boyden chamber with a polycarbonate membrane (10 μm thick with a porous diameter of 8.0 μm) separating the two chambers (Transwell®; Costar, Cambridge, Mass.). As indicated in some experiments the membranes were coated with collagen by adding collagen-I (10 μg/ml) diluted in 0.25% acetic acid to the upper chamber for 1 h at 37° C., after which it was washed three times with PBS. Each experiment was initiated by detaching the cells by Versene treatment for 10-20 min at 37° C., washed, and re-suspended as a single cell suspension in serum-free DMEM medium supplemented with 0.5% BSA. Together with the indicated agonist a 0.2 ml cell suspension (containing 25,000 MDA-MB-468 or 50,000 HB2 cells) was then added to the upper chamber of the transwell. The lower chamber was filled with 0.6 ml serum-free but BSA-containing DMEM medium supplemented with 1 ng/ml of the chemoattractant IGF-I. As a control, IGF-I was excluded in some wells in each separate experiment. The cells were allowed to migrate in the Boyden chamber for 18 h at 37° C. in a humidified atmosphere of 95% air and 5% CO2. The experiments were terminated by removing the non-migratory cells with a cotton-tipped applicator from the upper surface of the membranes. The remaining cells on the lower surface that had migrated through the membrane were stained for 20 min with 0.5% crystal violet diluted in 20% methanol/80% water. After washing the membranes the number of stained cells per membrane and well was counted in an inverted microscope. The value from each separate experiment represents the median value of three individual wells.
Effects of the selected and pure peptides on the ability of Wnt-5a antisense HB2 cells to adhere and migrate. (A-E) The ability of the cells to adhere to collagen type I-coated wells was analyzed as previously described for FIG. 2 in the absence or presence of different concentrations of the indicated peptide. (F) Effect of the indicated peptides on migration of Wnt-5a antisense HB2 in a transwell migration assay. The cells were allowed to migrate for 18 h in the absence or presence of 100 μM peptide or 0.4 μg/ml of recombinant Wnt5a. The data are given as means±SEM of 6-7 separate experiments, each performed in triplicate. * p<0.05 and ** p<0.01.

Frz-5 receptor [3] = target: T2, Frz-5 receptor; test: MDA-MB-468 cell migration with Frz-5 receptor blocking Ab or control anti-Frz-2 Ab; format: cell-based; design: endogenous in cells; host or cells: MDA-MB-468; conditions: recombinant Wnt-5a 0.4 μg/ml; Ab 5 μg/ml; 18 h
Protocol: The peptide […], corresponding to amino acids 198-217 in the ectodomain of the human Frz-5 receptor was as previously described used to generate a Frz-5 receptor blocking Ab (13). The peptide […], corresponding to amino acids 202-220 in the ectodomain of the human Frz-2 receptor, was used to generate a control anti-Frz-2 Ab. The synthesis of the peptides (the italic letters indicate the Frz-5 and Frz-2 sequences, the cysteine was added for raising and purifying the Ab) and the production of rabbit anti-Frz-5 and anti-Frz-2 antisera were managed by AgriSera (Vännäs, Sweden; permit A69-04 from Ume(a) animal ethic committe). The antisera were affinity purified in the laboratory by coupling the respective peptide antigen to Sulfolink Sepharose over which the respective antisera was then eluted.
Cell migration analyses were performed in a modified Boyden chamber with a polycarbonate membrane (10 μm thick with a porous diameter of 8.0 μm) separating the two chambers (Transwell®; Costar, Cambridge, Mass.). As indicated in some experiments the membranes were coated with collagen by adding collagen-I (10 μg/ml) diluted in 0.25% acetic acid to the upper chamber for 1 h at 37° C., after which it was washed three times with PBS. […] After washing the membranes the number of stained cells per membrane and well was counted in an inverted microscope. […]

T2 sequence (Q13467 27-585): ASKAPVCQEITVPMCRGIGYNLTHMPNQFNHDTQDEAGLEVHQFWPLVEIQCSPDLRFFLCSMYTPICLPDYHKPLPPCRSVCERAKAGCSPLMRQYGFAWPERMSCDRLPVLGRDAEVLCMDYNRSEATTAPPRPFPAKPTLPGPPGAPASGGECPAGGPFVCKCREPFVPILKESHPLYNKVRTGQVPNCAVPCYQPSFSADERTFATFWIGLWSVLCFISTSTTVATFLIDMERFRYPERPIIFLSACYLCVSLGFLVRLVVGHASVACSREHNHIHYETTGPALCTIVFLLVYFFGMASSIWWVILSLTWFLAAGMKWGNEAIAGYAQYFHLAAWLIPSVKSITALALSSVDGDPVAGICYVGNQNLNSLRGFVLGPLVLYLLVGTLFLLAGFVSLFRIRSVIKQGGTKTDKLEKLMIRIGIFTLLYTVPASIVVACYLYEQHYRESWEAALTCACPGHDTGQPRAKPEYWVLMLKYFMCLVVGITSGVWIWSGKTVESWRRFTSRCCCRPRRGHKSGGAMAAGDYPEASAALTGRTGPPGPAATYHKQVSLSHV
T1 sequence (P12931 whole entry): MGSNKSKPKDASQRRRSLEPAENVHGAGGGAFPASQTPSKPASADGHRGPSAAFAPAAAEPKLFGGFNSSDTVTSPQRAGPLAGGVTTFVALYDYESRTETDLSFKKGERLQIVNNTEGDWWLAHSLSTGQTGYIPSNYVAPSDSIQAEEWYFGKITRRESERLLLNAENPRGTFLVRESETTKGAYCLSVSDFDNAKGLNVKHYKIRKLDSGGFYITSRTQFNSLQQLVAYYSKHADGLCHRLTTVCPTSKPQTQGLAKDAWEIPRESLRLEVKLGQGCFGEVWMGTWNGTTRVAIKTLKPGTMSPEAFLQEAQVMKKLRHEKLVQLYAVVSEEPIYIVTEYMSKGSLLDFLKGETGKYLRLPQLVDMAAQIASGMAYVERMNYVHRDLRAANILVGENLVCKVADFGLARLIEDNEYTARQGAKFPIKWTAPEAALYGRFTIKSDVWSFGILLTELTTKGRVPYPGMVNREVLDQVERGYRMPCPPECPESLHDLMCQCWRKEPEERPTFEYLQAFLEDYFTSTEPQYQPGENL

Cc1ccc(-c2nn(C(C)(C)C)c3ncnc(N)c23)cc1 [PP1, 4-amino-5-(4-methyl-phenyl)-7-(t-butyl)pyrozolo-D-3,4-pyrimidine, reference compound]
Src kinase activity (Src kinase): abolished | basal phosphorylation of DDR1 (DDR1; PP1 10 μM for 30 min): abolished the basal phosphorylation of DDR1

formylated tripeptide fMet-Leu-Phe
MDA-MB-468 cell adhesion to collagen I (Frz-5 receptor [1]): 15.7

B1: recombinant Wnt-5a: recombinant mouse Wnt-5a (R&D Systems) (protein)
chain: IIGAQPLCSQLAGLSQGQKKLCHLYQDHMQYIGEGAKTGIKECQYQFRHRRWNCSTVDNTSVFGRVMQIGSRETAFTYAVSAAGVVNAMSRACREGELSTCGCSRAARPKDLPRDWLWGGCGDNIDYGYRFAKEFVDARERERIHAKGSYESARILMNLHNNEAGRRTVYNLADVACKCHGVSGSCSLKTCWLQLADFRKVGDALKEKYDSAAAMRLNSRGKLVQVNSRFNSPTTQDLVYIDPSPDYCVRNESTGSLGTQGRLCNKTSEGMDGCELMCCGRGYDQFKTVQTERCHCKFHWCCYVKCKKCTEIVDQFVCK
modifications: left off: small tags and cut ends
migration [2]: effectively decreased the migration | decrease in migration in presence of anti-Frz-5 or anti-Frz-2 Ab (Frz-5 receptor [3]): mediated via the Frz-5 receptor | level of DDR1 phosphorylation (DDR1; recombinant Wnt-5a 0.8 μg/ml, 60 min on collagen I): neither the pure peptides, CM nor recombinant Wnt-5a were able to further increase
